The target of assay [1] is T1, human FcRH5 (full-length, on cells) (human, UniProt Q96RD9 16-977).
T1 construct: Transfected SVT2/293 cells or endogenous expression (MOLP-2, primary cells); also called SVT2-FcRH5; SVT2-huFcRH5
T1 sequence: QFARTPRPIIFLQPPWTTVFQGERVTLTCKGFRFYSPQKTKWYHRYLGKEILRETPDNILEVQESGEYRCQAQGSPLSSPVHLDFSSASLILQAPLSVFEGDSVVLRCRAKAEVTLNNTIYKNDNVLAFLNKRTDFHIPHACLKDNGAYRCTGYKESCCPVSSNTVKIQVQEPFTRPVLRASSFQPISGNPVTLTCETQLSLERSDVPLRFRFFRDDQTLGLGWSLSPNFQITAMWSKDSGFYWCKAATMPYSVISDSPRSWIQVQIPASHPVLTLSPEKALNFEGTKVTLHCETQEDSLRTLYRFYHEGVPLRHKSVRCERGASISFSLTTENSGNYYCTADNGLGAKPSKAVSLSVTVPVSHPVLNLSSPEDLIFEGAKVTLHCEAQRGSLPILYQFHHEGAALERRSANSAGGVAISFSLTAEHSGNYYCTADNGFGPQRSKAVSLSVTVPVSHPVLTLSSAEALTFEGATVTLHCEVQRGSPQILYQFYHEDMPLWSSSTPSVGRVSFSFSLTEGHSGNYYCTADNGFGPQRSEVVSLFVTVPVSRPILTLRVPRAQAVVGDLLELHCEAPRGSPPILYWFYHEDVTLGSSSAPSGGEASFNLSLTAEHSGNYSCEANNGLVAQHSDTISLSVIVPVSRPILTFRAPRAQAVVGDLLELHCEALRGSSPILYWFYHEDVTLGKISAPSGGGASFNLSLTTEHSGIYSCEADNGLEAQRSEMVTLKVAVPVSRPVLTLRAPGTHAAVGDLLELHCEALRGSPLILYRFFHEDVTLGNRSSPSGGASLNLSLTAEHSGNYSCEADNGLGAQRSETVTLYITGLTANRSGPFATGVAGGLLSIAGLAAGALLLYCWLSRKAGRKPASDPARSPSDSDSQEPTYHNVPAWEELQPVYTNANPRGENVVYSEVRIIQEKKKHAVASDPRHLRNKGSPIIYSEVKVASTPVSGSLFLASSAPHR
The experiment in a line: FACS, SVT2 cells. Background: Flow cytometry measures light scatter and fluorescence of single cells or particles in a stream.

Assay [2] concerns the target T2, human FcRH1 (full-length, on SVT2 cells) (human, UniProt Q96LA6 17-429).
T2 construct: whole, on cells; also called SVT2-FcRH1
T2 sequence (looked up): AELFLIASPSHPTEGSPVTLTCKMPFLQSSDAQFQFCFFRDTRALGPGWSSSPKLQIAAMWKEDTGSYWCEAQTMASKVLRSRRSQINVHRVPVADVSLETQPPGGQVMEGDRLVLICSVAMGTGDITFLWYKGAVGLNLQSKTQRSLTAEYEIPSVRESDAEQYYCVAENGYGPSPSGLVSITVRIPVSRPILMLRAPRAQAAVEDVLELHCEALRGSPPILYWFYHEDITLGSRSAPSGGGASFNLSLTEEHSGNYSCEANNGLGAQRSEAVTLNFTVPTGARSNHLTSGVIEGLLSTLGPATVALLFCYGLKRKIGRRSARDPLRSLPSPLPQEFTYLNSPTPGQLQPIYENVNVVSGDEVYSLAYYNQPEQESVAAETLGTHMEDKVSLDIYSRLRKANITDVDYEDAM
The experiment in a line: FACS, SVT2 cells.

The target in assay [3] is T3, cynomolgus FcRH5 protein fragment (soluble) (cynomolgus monkey).
T3 construct: whole entry named; also called Cyno FcRH5 (BIACORE analyte)
T3 chain: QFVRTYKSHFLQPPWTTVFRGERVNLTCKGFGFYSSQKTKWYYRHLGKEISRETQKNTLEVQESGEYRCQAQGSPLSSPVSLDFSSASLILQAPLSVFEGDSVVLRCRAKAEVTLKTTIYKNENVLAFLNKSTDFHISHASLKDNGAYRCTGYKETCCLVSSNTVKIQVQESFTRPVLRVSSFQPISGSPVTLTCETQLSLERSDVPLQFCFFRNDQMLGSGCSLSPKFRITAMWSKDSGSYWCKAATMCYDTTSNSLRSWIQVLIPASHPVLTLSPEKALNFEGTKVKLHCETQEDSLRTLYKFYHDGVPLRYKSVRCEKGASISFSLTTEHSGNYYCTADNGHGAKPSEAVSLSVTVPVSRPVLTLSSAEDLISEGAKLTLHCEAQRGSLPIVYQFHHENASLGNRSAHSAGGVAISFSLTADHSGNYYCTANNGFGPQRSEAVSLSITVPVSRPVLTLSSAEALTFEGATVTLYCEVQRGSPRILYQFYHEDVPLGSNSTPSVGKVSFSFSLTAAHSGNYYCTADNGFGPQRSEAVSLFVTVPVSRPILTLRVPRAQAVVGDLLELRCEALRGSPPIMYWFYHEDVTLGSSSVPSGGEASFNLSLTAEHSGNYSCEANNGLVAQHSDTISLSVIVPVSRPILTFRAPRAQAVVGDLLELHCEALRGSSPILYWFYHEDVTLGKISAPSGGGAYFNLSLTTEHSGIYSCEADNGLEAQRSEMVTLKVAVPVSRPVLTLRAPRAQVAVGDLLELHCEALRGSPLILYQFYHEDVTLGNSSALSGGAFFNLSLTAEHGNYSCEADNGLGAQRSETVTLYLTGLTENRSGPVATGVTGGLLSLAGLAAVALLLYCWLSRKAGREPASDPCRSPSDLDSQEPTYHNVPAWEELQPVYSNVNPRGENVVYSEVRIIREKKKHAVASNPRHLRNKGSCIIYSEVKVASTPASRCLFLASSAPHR
The assay can be described thus: SPR, hIgG capture, 1:1 model. As for the experimental part:
Briefly, a human IgG capture surface was generated on a Series S CM5 chip using amine coupling and the human IgG capture kit (GE Life Sciences, Piscataway, NJ). Test antibodies were then captured on flow cells 2, 3, or 4, with flow cell 1 used as a reference. An FcRH5 protein fragment was used as the analyte, with a flow rate of […]. Between injections the capture surface was regenerated by a 30-second injection of 3M magnesium chloride or 10 mM glycine, pH 1.5. Interactions were assessed at 25° C. in 10 mM HEPES pH7.4, 150 mM NaCl, and 0.05% Tween 20 (HBSP). Reference data from the reference flow cell and from injection of buffer alone were subtracted prior to kinetic analysis. Kinetic information was calculated by fitting data to a 1:1 binding model. Reference subtraction and data fitting were performed using BIAevaluation software (GE Life Sciences, Piscataway, NJ).
Kinetic characterization experiments were carried out (see Table 8). In these experiments, binding of soluble FcRH5 protein fragment to purified antibodies in human TDB antibody format was analyzed at six different non-zero concentrations (a 1:3 dilution series, one concentration injected twice as a replicate). Flow rate was set at 40 μl/min and association and dissociation monitored for 600 s.
(SPR reads the build-up and loss of mass on a sensor chip optically.)

The Kd is the concentration at which binding is half-saturated. Broadly, the koff is a measure of how fast the partners let go of each other. The low end stands for a long-lived complex, the high end for a short-lived complex. The kon is the rate constant with which the complex forms. Higher therefore signals fast association.

B1: 15G8 (antibody, mouse IgG2a, V domains shown)
VH: EVQLQQSGPELVKPGASVKMSCKASGYTFTNYVIHWMKQKPGQGLEWIGYISPYNDYTKYNEKFEGKATLTSDKSSNTAYMELSSLTSEDSAVYYCARRDYYGSSDYWGQGTTLTVSS
VL: QIVLTQSPAIMSASPGEKVTMTCSASSSVDYMHWYQQKSGTSPKKWIYDTSKLASGVPARFSGSGSGTSYSLTIGSMEAEDAATYYCQQWSSNPPTFGGGTKLEIK
notes: mouse mAb, Campaign C; recombinant murine IgG2a for SPR; also called mAb 15G8
On to B1, for which the binding result in assay [1] is “binds”; in assay [2] it was “no binding”.

B2: 17B1 (antibody, mouse IgG2a, V domains shown)
VH: QVQLQQSGPELVRPGVSVKISCKGSGYTFTHYAMHWVKQSHTKSLEWIGMISSSSGNTNFNQKFMDKATMTVDKSSTTAYLELARLTFGDSAIYYCARWSYYALFDYWGQGTTVTVSS
VL: ENVLTQSPAIMSASPGEKVTMTCSADSSVDYIHWYQQKSNTSPKLWIYDTSKLASGVPGRFSGSGSGNSYSLTISSMEAEDFATYYCFQGSGYPLTFGSGTKLELK
notes: mouse mAb, Campaign C; recombinant murine IgG2a for SPR
On to B2, for which the binding result is “binds” in assay [1] and “no binding” in assay [2].

B3: hu1G7.v1.4/38E4.v1 TDB (bispecific antibody, V domains shown)
VH 1: EVQLVESGPGLVKPSETLSLTCTVSGFSLTRFGVHWVRQPPGKGLEWLGVIWRGGSTDYNAAFMSRLTISKDNSKNQVSLKLSSVTAADTAVYYCSNHYYGSSDYALDNWGQGTLVTVSS
VL 1: DIQMTQSPSSLSASVGDRVTITCKASQDVRNLVVWFQQKPGKAPKLLIYSGSYRYSGVPSRFSGSGSGTDFTLTISSLQPEDFATYYCQQHYSPPYTFGQGTKVEIK
VH 2: EVQLVQSGAEVKKPGASVKVSCKASGFTFTSYYIHWVRQAPGQGLEWIGWIYPENDNTKYNEKFKDRVTITADTSTSTAYLELSSLRSEDTAVYYCARDGYSRYYFDYWGQGTLVTVSS
VL 2: DIVMTQSPDSLAVSLGERATINCKSSQSLLNSRTRKNYLAWYQQKPGQSPKLLIYWTSTRKSGVPDRFSGSGSGTDFTLTISSLQAEDVAVYYCKQSFILRTFGQGTKVEIK
notes: knob-into-hole TDB; also called 1G7.v1.4 TDB; 1G7.v1.4 (TDB format)
In assay [3], B3 had a dissociation constant Kd of 6.3 nM, an off-rate (koff) of 0.0008 s⁻¹ and a kon of 100000 M⁻¹ s⁻¹.

B4: 1G7.v85/38E4.v1 TDB (bispecific antibody, V domains shown)
VH 1: EVQLVESGPGLVKPSETLSLTCTVSGFSLTRFGVHWVRQPPGKGLEWLGVIWRGGSTDYNAAFVSRLTISKDNSKNQVSLKLSSVTAADTAVYYCSNHYYGSSDYALDNWGQGTLVTVSS
VL 1: DIQMTQSPSSLSASVGDRVTITCKASQDVRNLVVWFQQKPGKAPKLLIYSGSYRYSGVPSRFSGSGSGTDFTLTISSLQPEDFATYYCQQHYSPPYTFGQGTKVEIK
VH 2: EVQLVQSGAEVKKPGASVKVSCKASGFTFTSYYIHWVRQAPGQGLEWIGWIYPENDNTKYNEKFKDRVTITADTSTSTAYLELSSLRSEDTAVYYCARDGYSRYYFDYWGQGTLVTVSS
VL 2: DIVMTQSPDSLAVSLGERATINCKSSQSLLNSRTRKNYLAWYQQKPGQSPKLLIYWTSTRKSGVPDRFSGSGSGTDFTLTISSLQAEDVAVYYCKQSFILRTFGQGTKVEIK
notes: knob-into-hole TDB; also called 1G7.v85 TDB; 1G7.v85 (TDB format)
For B4, in assay [3], the dissociation constant Kd was 6.8 nM, the dissociation rate constant (koff) was 0.0008 s⁻¹ and the on-rate (kon) amounted to 100000 M⁻¹ s⁻¹.

Values taken from US20240383984A1 (Genentech, published 2024).
